Laboratory results published in the DeepSol protein solubility set.

Assay: soluble on expression in E. coli; label from the status in PepcDB or PDB records

| Sequence | soluble on expression in E. coli |
| --- | --- |
| EHMQHLAMKGARFDIVLLPSSPTAHGLEQVQFQVAANKGNPPRPLNKVASGGELARISLALQVVASQYTQVPTLIFDEVDTGIGGGVAEMVGKALRALGRKHQVLAVTHLPQVASCGENHWRVRKHSEGEQTVSEISILDEIQRIEEVARMLGGEVITDTTRQHAAELLQLASKNSLF | not soluble |
| MTLKELLVGFGTQVRSIWMIGLHAFAKRETRMYPEEPVYLPPRYRGRIVLTRDPDGEERCVACNLCAVACPVGCISLQKAETKDGRWYPEFFRINFSRCIFCGLCEEACPTTAIQLTPDFELGEYKRQDLVYEKEDLLISGPGKYPEYNFYRMAGMAIDGKDKGEAENEAKPIDVKSLLP | not soluble |
| MGGFLVLNSSNNVVRTVPSKKRKHPEYKSKGSQIRELISGIRSDNLREAVRLPQGVDINEWFAMNNFFNQISLLYATLEEFCTQTTCPVMNAGRYEYRWADGTTITKPKTVSAPKYVEYLIDWVETEIDNEAIFPKNPGEPFPPNFEDFVKRILRKLFRVYAHIYYSHFHEIVALNEQAHLNTCFKHFLLFVSEFQLVDKEKEMAPIKSLVETMLDQ | soluble |
| MSTSKRPYKILLRKVESKEENKKDTNETKKKEEESKHYEDRHYRKNDIKHYEENEKTIKSKMHYNSRNRYYDKYSMSYSRYDEKLNKQHSSEKKKDVLVPLLEQASINIKKKKIIIRKLPPTLTEENFFDSFSNNIKDELDYYYFVNGSASKDSSNDIIYSRMYLSFKDDMKTDEFIRTQNGKFFYDLNGVKYKALVSYAPNQTLIKKNKPDSRNNTLESDEYFLKCCEEMNNPVQRVKKDIDYSELINVQTENGAILSPIVIELRSKKKK | not soluble |
| MSKNIGLNAIEMSYLRQSLSLSAAQVGQLTNHSEAEVLAWENAETQAPELAQKKLLDIDDIIEMQVLNTTDGIEALFKKEPKRHLAFVVYPTQAIYTQYNPEFLSSLPLTELYNTAAWRIKKECKLVLEVDVSLINLNVEAYKAYREQNGLSESRESRAKWAATQL | soluble |
| GPLGSMDAKARNCLLQHREALEKDIKTSYIMDHMISDGFLTISEEEKVRNEPTQQQRAAMLIKMILKKDNDSYVSFYNALLHEGYKDLAALLHDGIPVVSSS | soluble |
| MRYNEKELQALSRQPAEMAAELGMRGPKKGSVLKRRLVKLVVNFLFYFRTDEAEPVGALLLERCRVVREEPGTFSISFIEDPERKYHFECSSEEQCQEWMEALRRASYEFMRRSLIFYRNEIRKVTGKDPLEQFGISEEARFQLSGLQA | soluble |
| SNALANRIENVVSQERTRKKFESLVSDSPDGIVHLTTNGTILSVNPSMAGRLGADPDTLVGQQLSAVMDSEAANQRLEAGKSAVENGTATRSEDAVGGRHYHNQYIPVDSHRKSDTFQLVSRDIT | soluble |
| VELIGRSEWINQYRRRLQQLSETDIAVWLYGAPGTGRMTGARYLHQFGRNAQGEFVYRELTPDNAPQLNDFIALAQGGTLVLSHPEHLTREQQYHLVQLQSQEHRPFRLIGIGDTSLVELAASNHIIAELYYCFAMTQIACLPLT | soluble |
| EQEVSLDLILVEEYDSLIEKMSNWNFPIFELVEKMGEKSGRILSQVMYTLFQDTGLLEIFKIPTQQFMNYFRALENGYRDIPYHNRIHATDVLHAVWYLTTRPVPGLQQIHNGCGTGNETDSDGRINHGRIAYISSKSCSNPDESYGCLSSNIPALELMALYVAAAMHDYDHPGRTNAFLVATNAPQAVLYNDRSVLENHHAASAWNLYLSRPEYNFLLHLDHVEFKRFRFLVIEAILATDLKKHFDFLAEFNAKANDVNSNGIEWSNENDRLLVCQVCIKLADINGPAKVRDLHLKWTEGIVNEFYEQGDEEANLGLPISPFMDRSSPQLAKLQESFITHIVGPLCNSYDAAGLLPGQWLEAEEDNDTESGDDEDGEELDTEDEEMENNLNPKPPRRKSRRRIFCQLMHHLTENHKIWK | soluble |
| MGSDKIHHHHHHMDLRGRLIPDYRIDTPVDAPLEYRPAVTWRCERCGKLPTRGPCTCGKRCYYCRHCLIFGKLRTCDRLVTDPRPLDPVRPDHHTELNLTSDQQRIAEAIVRTIDQRKRLLVHAVCGAGKTPMLFPGIERALSTNRRVLITAPRADVVRELTGHLRRAFQQATIVSLFGGSEDRLGIGDITISTTHQLIHYRACFDVVFIDEVDAFPYRTDRTLHRYVRQATAPGASLILLSATPSLRDRRLPTVRLMRRYHGFPLPTPRLQVPYGKHDVVDWVLTHAGKPRLLFVPQVEALETWQTCLQQQGITCETVHAADPDRITKVARFRQTTGVLLTTTILERGVTLINVQVAVLDADHSFSSAALIQISGRVGRSADFPEGDVVLFANDRSDAMYEAIDHIKRANREGFR | not soluble |
| MAAATGGLTPEQIIAVDGAHLWHPYSSIGREAVSPVVAVAAHGAWLTLIRDGQPIEVLDAMSSWWTAIHGHGHPALDQALTTQLRVMNHVMFGGLTHEPAARLAKLLVDITPAGLDTVFFSDSGSVSVEVAAKMALQYWRGRGLPGKRRLMTWRGGYHGDTFLAMSICDPHGGMHSLWTDVLAAQVFAPQVPRDYDPAYSAAFEAQLAQHAGELAAVVVEPVVQGAGGMRFHDPRYLHDLRDICRRYEVLLIFDEIATGFGRTGALFAADHAGVSPDIMCVGKALTGGYLSLAATLCTADVAHTISAGAAGALMRGPTFMANPLACAVSVASVELLLGQDWRTRITELAAGLTAGLDTARALPAVTDVRVCGAIGVIECDRPVDLAVATPAALDRGVWLRPFRNLVYAMPPYICTPAEITQITSAMVEVARLVGSLP | soluble |
| MIETLEENLEKVFKAIRSLIIEDMAKDMPMLALTLELLQSIPGIGLISAVTILAEIGDFSAFSKPGKLVAYFGIDPSVMQSGEFTGTQNKMSKRGSRLLRRVLFTIALANIRTKRDKTACNPVLMEYYKNKCQSKPKKVALGAVMRKLVNYIFAVLRDRKPYELRSPQEHAQMLAAKHTAA | not soluble |
| MGSDKIHHHHHHMRLDHLRLQNFRCYEDAHFDFQPGFNLVVGVNGSGKTSLLLGVAECLIPYGNAMGQGQEILSKEDVRFVIDRHEGRSRFERKFPVFIRADGDIFDLPNWRAVRLLEPWEGGVDPSSLSHLSAVLARNNAGEQIDFPVLAFYRANRRWSSARISAEFAAQQRTSRFDGYANWFDAVADLRDFESWLIARTLERLQDRLDSTPTVEREDELEWVNRAIRLAIPDAHDLRYDLRLQSLLVDMGEGNAVPFHELSDGQRSLIALIADIARRMCVLNPHIGKDVLANTGGIVIIDELDIHLHPAWQRNIAPTLKKAFPKVQFIATSHSPQVIGSLQPGEVILLKNGDSSHPRATYGLDSSTILEEVMGVPQREPEIEVLLDELFSTLENNELEKARLQLDALKKKAPDLPEFAGAEALLKRKELIGR | not soluble |
| MGSDKIHHHHHHMSKLAAFLGRAIPTHQQKQSSHLGDRTLYVGASDIAGCPRKAALGKQNPTGHDIKTLLRFSRGHAAQAMYADFFRTGGALFEEEVEVRHPAIPEIRCHIDFLFYANRQTKRLHIVEMKSTDGIPDEPYASWVDQLHVQMGLLQLTLDPAVEIGGSILVVDLNAGSYHEFNSYTPNRLVFDQLVEKGKHILAAARGECAPRTEPGILCGYCPFRTGCPSHAVALDLPREILDTGRKYLELNEQKKALENRLDVLKNDILTFADGTFKGASDGILINVTSVADSTTIDSYKLKRNYPDIYDQVTKPKSGYVKLEIKPFTPLAAQAA | not soluble |
| MATQLLMPKATAVWLVDNTALTFDQIAEFCKLHVLEVKAIADGEAAYGIKGLDPISSGQLTRSEIARVEADKNARLKISQSKVHIPEKKRKGARYIPLSRRQDRPNGILWLVTNHPELKDAQIARLIGTTKGTIEQIRNRTHWNSANLVALDPVGLGLCLQIDLDIELKRAAKNRPLSNEEDKSLLPASVTENVAIHEKEHEQDFNKNFDADKVFAKLNALQKNRENDASTELEHHHHHH | soluble |
| MAHHHHHHMTPAGAGEIFLRHNPYRSEVISWYRKFLKASFSVPWETDEDALYVLEEARRLFRKNARINDIETIERKLREAEMRYEIGVHYRIPYPRAFHKTQGSLQESGVAYAADLDSMYDHPVSPRIGWIMEGSVNGGTMGGSEHLTQYLEDGPGVENDNLSEGR | not soluble |
| MEFGRNPLSMTSTKPTLLNVLDDVGEAALHAIPKVDDITSHKIYVIAVQPVSFSDIESQAVKQDASSPNNCCCSCMHGVLRFFAELCCNCCAGCVQGICQG | not soluble |
| MAHHHHHHMKKNFPQSYNFFPLTWILPNEISDFKNYFKKESGSKTYIVKLKNSCQGKGIYLTKTLDNINKYDSCVIQKYIHKPLLINGLKFDIRLYVLVTGCDPLRIFLHEDGLVRFSIEKYKLPKSKNLKQVNMHLTNFSINKKSDKFENSPNPDDATMGHKRSWKAFLQKLKEEGLPMDSVMKRIEHMIVKTICSIQPELKHYYNSAHISDYSNSMCFEVLGFDILLDYKLKPWLLEVNHSPSFATSSLVDEKVKYAVIRDTLNMLYMHSKYRHIHIQEYLNLQKFRKKYSDVL | not soluble |
| MSDEEIDISTALNNKTTPKKKSLKRNSNSQEGYESPEEREIVYPSVFGAIGTPMAKSDNAKEWDEWKEKERKKDKAEWKRYLRSKWDMTQGHLPLVSDSEFLKGRKEHKEYNSKARMDILDGLDEVNEGFFNCGKGAAMNIRYNDKNVSKKGAKKFVATVETAMKKAGNPTMEQMMTDDLDEDEARAEAEWERQREQRKLASRAYDAAMDEREDDAKYVPWDEYCQEMEELGKELKIGEKHYKKWLEKKMDENKVTHKFNAYQLDLKCLDEDAFSNKKSLKSVVRNVQKFYRKMREPKK | not soluble |
| MKSYTKHTHTNRLASESSPYLLQHAHNPVEWFPWGEEALQKAKAEDKPILVSIGYSACHWCHVMEHECFEKEEVAAVMNDLFINIKIDREERPDLDQIYMDAVSAMGLRGGWPLNVFLTPDAKPFYGGTYFPQDHWLNLLGQISNAYLNHREDILKSAESFTESLNQSDVF | not soluble |
| MSLRKFKSILLIDDDETSNFISEVIIKKLGITETISTVKNGVEALNFVSNNCTINCAPTCPQIIFLDLHMPVMDGFDFLKELKKQMPLYTQKFKIFVLSSSNNPADITKTKDFDVEGYIVKPLSQEKISMLLEDVAEGHHHHHH | not soluble |
| MSRPRAKLTGNFPGCPVESALSFLDGKWKGVILYHLINEGTLRFNELRRHIPSVTQRMLTKQLRELEEAGLISRTVFPVVPPRVDYALTPLGETMRPVISALKSWGDAHVVCKNGEKYTRAPTVAEKAA | not soluble |
| MRALIIVDVQNDFCEGGSLAVTGGAALARAISDYLAEAADYHHVVATKDFHIDPGDHFSGTPDYSSSWPPHCVSGTPGADFHPSLDTSAIEAVFYKGAYTGAYSGFEGVDENGTPLLNWLRQRGVDEVDVVGIATDHCVRQTAEDAVRNGLATRVLVDLTAGVSADTTVAALEEMRTASVELVCSS | soluble |
| MKRLDKKEALDLLHHASLTELGEMAYKRKLELHPEKITTFVVDRNINYTNVCCIDCSFCAFYRHHKEDDAYILSFEEIGKKIEELEAIGGTQILFQGGVHPKLKIEWYEELVSWIKEHYPNITVHGFSAVEIAYIAKASKISITEVLKRLQAKGLFSIPGAGAEVLSDRVRDIIAPNKCDTATWLEVHRQAHKIGMKSTATMMFGTVENDEEIIDHFEHLRKLQDETGGFRAFILWSFQSDNTALIQKHPEIMKQSSNKYLRLLALVRLYLDNFKNLQSSWVTQGSLIGQLALKFGANDLGSTMMEENVVSAAGASYRMNQDEMIRLIRSLGENPAKRNTAYEILERFLEHHHHHH | not soluble |
| MPFIDIQSKVGINIDKWLLLQSSKQPYRWTTSCHAFEKEWVECSHGIGQIRAQKECKLEYEDFYECMHRNKLRQRLQAIQEQKKKLEKEGVYKAPDFTKDSNTP | not soluble |
